Measured values reported in patent publication US20200164029A1 (ACCELERON PHARMA, published 2020).

T1: mENG(27-581)-hFc (R&D Systems, catalog #1320-EN) (murine; human, UniProt Q63961 27-581)
T1 construct: Bought protein; not shown: Fc domain of human IgG1
T1 sequence: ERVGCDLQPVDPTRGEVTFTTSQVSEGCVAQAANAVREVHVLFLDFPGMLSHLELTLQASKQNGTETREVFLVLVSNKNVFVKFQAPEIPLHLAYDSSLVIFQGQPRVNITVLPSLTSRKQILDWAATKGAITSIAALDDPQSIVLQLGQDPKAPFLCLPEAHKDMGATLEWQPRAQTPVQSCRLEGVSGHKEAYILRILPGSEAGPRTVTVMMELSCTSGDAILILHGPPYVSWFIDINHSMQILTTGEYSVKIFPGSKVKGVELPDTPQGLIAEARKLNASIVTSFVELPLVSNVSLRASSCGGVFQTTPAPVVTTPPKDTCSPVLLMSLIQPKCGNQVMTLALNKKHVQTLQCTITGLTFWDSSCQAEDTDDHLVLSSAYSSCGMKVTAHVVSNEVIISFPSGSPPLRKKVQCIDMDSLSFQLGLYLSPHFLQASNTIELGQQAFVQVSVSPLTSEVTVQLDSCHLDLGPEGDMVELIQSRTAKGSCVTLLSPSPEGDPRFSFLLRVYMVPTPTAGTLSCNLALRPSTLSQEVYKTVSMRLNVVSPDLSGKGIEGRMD

T2: human BMP-9 (human, UniProt Q9UK05 320-429)
T2 construct: also called hBMP-9
T2 sequence (looked up): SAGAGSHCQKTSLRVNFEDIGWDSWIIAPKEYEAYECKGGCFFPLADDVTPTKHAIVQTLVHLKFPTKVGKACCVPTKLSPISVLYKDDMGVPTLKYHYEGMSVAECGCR

T3: human BMP-10 (human, UniProt O95393 317-424)
T3 construct: also called hBMP-10
T3 sequence (looked up): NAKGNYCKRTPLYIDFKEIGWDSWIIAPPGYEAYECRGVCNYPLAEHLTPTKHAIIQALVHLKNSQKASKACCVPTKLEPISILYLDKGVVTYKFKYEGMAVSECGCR

B1: ALK5 (receptor, human, UniProt P36897 34-126, looked up)
chain: LQCFCHLCTKDNFTCVTDGLCFVSVTETTDKVIHNSMCIAEIDLIPRDRPFVCAPSSKTGSVTTTYCCNQDHCNKIELPTTVKSSPGLGPVEL
notes: Member of the printed range ALK2-ALK7; also called type I receptor ALK5
B2: human BMP-2 (ligand, UniProt P12643 283-396, looked up)
chain: QAKHKQRKRLKSSCKRHPLYVDFSDVGWNDWIVAPPGYHAFYCHGECPFPLADHLNSTNHAIVQTLVNSVNSKIPKACCVPTELSAISMLYLDENEKVVLKNYQDMVVEGCGCR
notes: also called hBMP-2
B3: hBMP-2/7 (ligand, human)
chain 1: B2 chain
chain 2: STGSKQRSQNRSKTPKNQEALRMANVAENSSSDQRQACKKHELYVSFRDLGWQDWIIAPEGYAAYYCEGECAFPLNSYMNATNHAIVQTLVHFINPETVPKPCCAPTQLNAISVLYFDDSSNVILKKYRNMVVRACGCH
notes: read as the BMP-2/BMP-7 heterodimer
B4: ALK3 (receptor, human, UniProt P36894 24-152, looked up)
chain: QNLDSMLHGTGMKSDSDQKKSENGVTLAPEDTLPFLKCYCSGHCPDDAINNTCITNGHCFAIIEEDDQGETTLASGCMKYEGSDFQCKDSPKAQLRRTIECCRTNLCNQYLQPTLPPVVIGPFFDGSIR
notes: Member of the printed range ALK2-ALK7; also called type I receptor ALK3
B5: human TGF-β3 (ligand, UniProt P10600 301-412, looked up)
chain: ALDTNYCFRNLEENCCVRPLYIDFRQDLGWKWVHEPKGYYANFCSGPCPYLRSADTTHSTVLGLYNTLNPEASASPCCVPQDLEPLTILYYVGRTPKVEQLSNMVVKSCKCS
notes: also called hTGF-β3
B6: hENG(360-437)-hFc (Fc fusion)
chain: QTKCADDAMTLVLKKELVAHLKCTITGLTFWDPSCEAEDRGDKFVLRSAYSSCGMQVSASMISNEAVVNILSSSSPQR
notes: Expressed in COS cells, not purified; not shown: human IgG1 Fc domain
B7: ALK2 (receptor, human, UniProt Q04771 21-123, looked up)
chain: MEDEKPKVNPKLYMCVCEGLSCGNEDHCEGQQCFSSLSINDGFHVYQKGCFQVYEQGKMTCKTPPSPGQAVECCQGDWCNRNITAQLPTKGKSFPGTQNFHLE
notes: Member of the printed range ALK2-ALK7; also called type I receptor ALK2
B8: TGF-β receptor II (receptor, human, UniProt P37173 24-159, looked up)
chain: IPPHVQKSVNNDMIVTDNNGAVKFPQLCKFCDVRFSTCDNQKSCMSNCSITSICEKPQEVCVAVWRKNDENITLETVCHDPKLPYHDFILEDAASPKCIMKEKKKPGETFFMCSCSSDECNDNIIFSEEYNTSNPD
B9: human activin A (ligand, UniProt P08476 311-426, looked up)
chain: GLECDGKVNICCKKQFFVSFKDIGWNDWIIAPSGYHANYCEGECPSHIAGTSGSSLSFHSTVINHYRMRGHSPFANLKSCCVPTKLRPMSMLYYDDGQNIIKKDIQNMIVEECGCS
notes: also called hActivin A
B10: hENG(258-346)-hFc (Fc fusion)
chain: YVSWLIDANHNMQIWTTGEYSFKIFPEKNIRGFKLPDTPQGLLGEARMLNASIVASFVELPLASIVSLHASSCGGRLQTSPAPIQTTPP
notes: not shown: human IgG1 Fc domain
B11: hENG(26-586) (R&D Systems, catalog #1097-EN) (receptor)
chain: ETVHCDLQPVGPERGEVTYTTSQVSKGCVAQAPNAILEVHVLFLEFPTGPSQLELTLQASKQNGTWPREVLLVLSVNSSVFLHLQALGIPLHLAYNSSLVTFQEPPGVNTTELPSFPKTQILEWAAERGPITSAAELNDPQSILLRLGQAQGSLSFCMLEASQDMGRTLEWRPRTPALVRGCHLEGVAGHKEAHILRVLPGHSAGPRTVTVKVELSCAPGDLDAVLILQGPPYVSWLIDANHNMQIWTTGEYSFKIFPEKNIRGFKLPDTPQGLLGEARMLNASIVASFVELPLASIVSLHASSCGGRLQTSPAPIQTTPPKDTCSPELLMSLIQTKCADDAMTLVLKKELVAHLKCTITGLTFWDPSCEAEDRGDKFVLRSAYSSCGMQVSASMISNEAVVNILSSSSPQRKKVHCLNMDSLSFQLGLYLSPHFLQASNTIEPGQQSFVQVRVSPSVSEFLLQLDSCHLDLGPEGGTVELIQGRAAKGNCVSLLSPSPEGDPRFSFLLHFYTVPIPKTGTLSCTVALRPKTGSQDQEVHRTVFMRLNIISPDLSGCTSKG
notes: also called soluble human ENG extracellular domain
B12: activin receptor IIB (receptor, human, UniProt Q13705 19-134, looked up)
chain: SGRGEAETRECIYYNANWELERTNQSGLERCEGEQDKRLHCYASWRNSSGTIELVKKGCWLDDFNCYDRQECVATEENPQVYFCCCEGNFCNERFTHLPEAGGPEVTYEPPPTAPT
notes: also called ActRIIB
B13: human TGF-β2 (ligand, UniProt P61812 303-414, looked up)
chain: ALDAAYCFRNVQDNCCLRPLYIDFKRDLGWKWIHEPKGYNANFCAGACPYLWSSDTQHSRVLSLYNTINPEASASPCCVSQDLEPLTILYYIGKTPKIEQLSNMIVKSCKCS
notes: also called hTGF-β2
B14: bone morphogenetic protein receptor II (receptor, human, UniProt Q13873 27-150, looked up)
chain: SQNQERLCAFKDPYQQDLGIGESRISHENGTILCSKGSTCYGLWEKSKGDINLVKQGCWSHIGDPQECHYEECVVTTTPPSIQNGTYRFCCCSTDLCNVNFTENFPPPDTTPLSPPHSFNRDET
notes: also called BMPRII
B15: ALK4 (receptor, human, UniProt P36896 24-126, looked up)
chain: SGPRGVQALLCACTSCLQANYTCETDGACMVSIFNLDGMEHHVRTCIPKVELVPAGKPFYCLSSEDLRNTHCCYTDYCNRIDLRVPSGHLKEPEHPSMWGPVE
notes: Member of the printed range ALK2-ALK7; also called type I receptor ALK4
B16: human BMP-7 (ligand, UniProt P18075 293-431, looked up)
chain: B3 chain 2
notes: also called hBMP-7
B17: ALK7 (receptor, human, UniProt Q8NER5 21-113, looked up)
chain: ELSPGLKCVCLLCDSSNFTCQTEGACWASVMLTNGKEQVIKSCVSLPELNAQVFCHSSNNVTKTECCFTDFCNNITLHLPTASPNAPKLGPME
notes: Member of the printed range ALK2-ALK7; also called type I receptor ALK7
B18: hENG(360-457)-hFc (Fc fusion)
chain: QTKCADDAMTLVLKKELVAHLKCTITGLTFWDPSCEAEDRGDKFVLRSAYSSCGMQVSASMISNEAVVNILSSSSPQRKKVHCLNMDSLSFQLGLYLS
notes: as for B6
B19: ALK6 (receptor, human, UniProt O00238 14-126, looked up)
chain: KKEDGESTAPTPRPKVLRCKCHHHCPEDSVNNICSTDGYCFTMIEEDDSGLPVVTSGCLGLEGSDFQCRDTPIPHQRRSIECCTERNECNKDLHPTLPPLKNRDFVDGPIHHR
notes: Member of the printed range ALK2-ALK7; also called type I receptor ALK6

Columns and labels:
[1] = molecular target: B11; test: SPR
[2] = molecular target: B11; test: SPR (Biacore), immobilized construct, soluble ligand
[3] = molecular target: T1, mENG(27-581)-hFc (R&D Systems, catalog …); test: SPR (Biacore), captured construct, soluble ligand
[4] = molecular target: T2, human BMP-9; test: SPR, captured hENG-hFc, soluble ligand
[5] = molecular target: T3, human BMP-10; test: SPR, captured hENG-hFc, soluble ligand
[6] = molecular target: T2, human BMP-9; test: SPR competition: hENG(26-586) premixed with BMP-9, binding to captured ALK1-hFc
Text: (§1) BMP-9 and BMP-10 are high-affinity ligands at the type I receptor ALK1 (activin receptor-like kinase 1). […] Similar results were obtained with BMP-10 (FIG. 21).

[7] = molecular target: T3, human BMP-10; test: SPR competition: hENG(26-586) 0-50 nM premixed with 10 nM BMP-10, binding to captured ALK1
Text: as §1

[8] = molecular target: T2, human BMP-9; test: SPR competition: hENG(26-586) 0-50 nM premixed with 10 nM BMP-9, binding to captured ALK1
Text: as §1

| Binder | binding result [1] | binding result [2] | binding result [3] | further results |
| --- | --- | --- | --- | --- |
| B1 | no binding |  |  |  |
| B2 |  | no binding (tested: 25 nM) | no binding (tested: 25 nM) |  |
| B3 |  | no binding (tested: 25 nM) | no binding (tested: 25 nM) |  |
| B4 | no binding |  |  |  |
| B5 |  | no binding (tested: 25 nM) | no binding (tested: 10 nM) |  |
| B6 |  |  |  | binding result [4]: no binding (tested: 100 nM); binding result [5]: no binding (tested: 100 nM) |
| B7 | no binding |  |  |  |
| B8 | no binding |  |  |  |
| B9 |  | no binding (tested: 25 nM) | no binding (tested: 25 nM) |  |
| B10 |  |  |  | binding result [4]: no binding (tested: 100 nM); binding result [5]: no binding (tested: 100 nM) |
| B11 |  |  |  | IC50 [6]: < 10 nM; IC50 [7]: 6.3 nM; IC50 [8]: 9.7 nM |
| B12 | no binding |  |  |  |
| B13 |  | no binding (tested: 25 nM) | no binding (tested: 10 nM) |  |
| B14 | no binding |  |  |  |
| B15 | no binding |  |  |  |
| B16 |  | no binding (tested: 25 nM) | no binding (tested: 25 nM) |  |
| B17 | no binding |  |  |  |
| B18 |  |  |  | binding result [4]: no binding (tested: 100 nM); binding result [5]: no binding (tested: 100 nM) |
| B19 | no binding |  |  |  |
